Laboratory results from patent publication US5780265, “Kunitz type plasma kallikrein inhibitors” (Genentech, Inc., dated 1998).
Like-named read-outs stand apart in the source and are kept apart here. Where no end group is shown, it is not given here.

Tests used:
Human plasma kallikrein [1] = molecular target: T1, Human plasma kallikrein (human, UniProt P03952); assay: enzyme inhibition of plasma kallikrein (apparent Ki*)
Human Factor XIa [2] = molecular target: T2, Human Factor XIa (human, UniProt P03951); assay: enzyme inhibition of FXIa, chromogenic substrate, fit to the tight-binding equation (apparent Ki*)
Human plasma kallikrein [3] = molecular target: T1, Human plasma kallikrein; assay: enzyme inhibition of plasma kallikrein, substrate S2302, fit to the tight-binding equation (apparent Ki*)
Human Factor XIa [4] = molecular target: T2, Human Factor XIa; assay: enzyme inhibition of FXIa, chromogenic substrate, fit to the tight-binding equation (apparent Ki*); remark: listed apart in the source
Human plasma kallikrein [5] = molecular target: T1, Human plasma kallikrein; assay: enzyme inhibition of plasma kallikrein, substrate S2302, fit to the tight-binding equation (apparent Ki*); remark: listed apart in the source
Procedure: Determination of the apparent equilibrium dissociation constants of selected Kunitz domains with plasma kallikrein and FXIa. The inhibitory activity is expressed as the fractional activity (inhibited rate/uninhibited rate) at varying inhibitor concentrations. The apparent equilibrium dissociation constants were determined by nonlinear regression analysis of the data to equation 1.
Plots of the fractional rate versus inhibitor concentration were fit by nonlinear regression analysis to Equation 1 to determine apparent equilibrium dissociation constants (K_i^*):

Human plasma kallikrein [6] = molecular target: T1, Human plasma kallikrein; assay: enzyme inhibition of plasma kallikrein (apparent Ki*), against APPI
Human plasma kallikrein [7] = molecular target: T1, Human plasma kallikrein; assay: enzyme inhibition of plasma kallikrein (apparent Ki*), against BPTI

Binder	Ki (Human Factor XIa [2]) [nM]	Ki (Human plasma kallikrein [3]) [nM]	Ki (Human Factor XIa [4]) [nM]	Ki (Human plasma kallikrein [5]) [nM]	further results
KALI-D (designed binder) VREVCSEQAEDGHCRAAHPRWYFDVTEGKCAPFFYGGCGGNRNNFDTEEYCAAVCGSA	5.7	0.025	–	–	Ki (Human plasma kallikrein [1]): < 0.05 nM
KALI-13 (designed binder) VREVCSEQAESGHCRAAIPRWYFDVTEGKCAPFFYGGCGGNRNNFDTEEYCAAVCGSA	–	–	1.4	0.203	–
KALI-8 (designed binder) VREVCSEQAELGHCRAAIPRWYFDVTEGKCAPFFYGGCGGNRNNFDTEEYCAAVCGSA	–	–	0.3	0.074	–
KALI-46 (designed binder) VREVCSEQAEEGRCRASILRWYFDVTEGKCAPFFYGGCGGNRNNFDTEEYCAAVCGSA	–	–	0.3	0.175	–
KALI-DV (designed binder) VREVCSEQAEDGHCRAAHPRWYFDVTEGKCAPFVYGGCGGNRNNFDTEEYCAAVCGSA	1.3	0.043	–	–	Ki (Human plasma kallikrein [1]): < 0.05 nM
KALI-EY (designed binder) VREVCSEQAEEGHCRAAHPRWYFDVTEGKCAPFYYGGCGGNRNNFDTEEYCAAVCGSA	7.3	0.98	–	–	–
KALI-PV (designed binder) VREVCSEQAEPGHCRAAHPRWYFDVTEGKCAPFVYGGCGGNRNNFDTEEYCAAVCGSA	4.1	0.166	–	–	–
KALI-30 (designed binder) VREVCSEQAEEGHCRAAILRWYFDVTEGKCAPFFYGGCGGNRNNFDTEEYCAAVCGSA	–	–	0.4	0.258	–
KALI-E (designed binder) VREVCSEQAEEGHCRAAHPRWYFDVTEGKCAPFFYGGCGGNRNNFDTEEYCAAVCGSA	4.5	0.103	–	–	–
KALI-48 (designed binder) VREVCSEQAETGHCRAAIPRWYFDVTEGKCAPFFYGGCGGNRNNFDTEEYCAAVCGSA	–	–	0.7	0.209	–
KALI-P (designed binder) VREVCSEQAEPGHCRAAHPRWYFDVTEGKCAPFFYGGCGGNRNNFDTEEYCAAVCGSA	13.8	0.2	–	–	–
KALI-EV (designed binder) VREVCSEQAEEGHCRAAHPRWYFDVTEGKCAPFVYGGCGGNRNNFDTEEYCAAVCGSA	–	0.117	–	–	–
KALI-DY (designed binder) VREVCSEQAEDGHCRAAHPRWYFDVTEGKCAPFYYGGCGGNRNNFDTEEYCAAVCGSA	8.2	0.015	–	–	Ki (Human plasma kallikrein [1]): < 0.05 nM; fold better inhibition than APPI (Human plasma kallikrein [6]): > 10000 fold; fold more potent than BPTI (Human plasma kallikrein [7]): 3000 fold
KALI-PY (designed binder, not fully specified (bridges); cysteine pairing not given here) VREVCSEQAEPGHCRAAHPRWYFDVTEGKCAPFYYGGCGGNRNNFDTEEYCAAVCGSA	11.7	0.136	–	–	–
